The values below come from patent US20210198368A1 (Novartis, published 2021).

The Kd is the equilibrium constant for the complex coming apart. A low value points to higher affinity. By koff is commonly meant a measure of how fast the partners let go of each other. Low readings indicate a long-lived complex, high ones a short-lived complex. As a reminder, the kon is the rate constant with which the complex forms.

Experiment [1] concerns the target T1, human CLL-1 Fc (human, UniProt Q5QGZ9 65-265, limits assumed).
T1 construct: Captured at 120 RU on an anti-Fc CM5 chip for Biacore; not shown: Fc part of the fusion (captured by an anti-Fc / anti-huFc antibody)
T1 sequence (looked up): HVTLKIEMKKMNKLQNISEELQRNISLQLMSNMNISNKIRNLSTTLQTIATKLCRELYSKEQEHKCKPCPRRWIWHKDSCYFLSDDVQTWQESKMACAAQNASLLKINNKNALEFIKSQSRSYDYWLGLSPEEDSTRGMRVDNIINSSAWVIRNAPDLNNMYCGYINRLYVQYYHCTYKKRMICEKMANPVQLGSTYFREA
The experiment in a line: SPR (Biacore T200), human CLL-1 Fc captured on an anti-Fc CM5 chip, scFv as analyte, 1:1 binding fit. The protocol:
Next, the affinity for human CLL-1 of a representative number of anti-CLL-1 scFvs was tested by Biacore. Briefly, anti-Fc antibody (Jackson ImmunoReasearch, catalog #109-005-098) was immobilized to a CM5 sensor chip via amine coupling, and human CLL-1 Fc was then captured at a density of 120 RU. ScFv samples were serial diluted 3-fold and injected over the chip at a constant flow rate. Association and dissociation rates of the protein complex were monitored for 270 s and 400 s, respectively. Double referencing was performed against an anti-huFc coated flow cell and a buffer blank and the data was fit using a 1:1 Langmuir or steady state affinity model with the Biacore T200 evaluation software. Binding of clones CLL-1-6, CLL-1-8, CLL-1-9, CLL-1-10, and CLL1-13 to human CLL-1 was confirmed.

Experiment [2] has as its target T2, human CLL-1 (human, UniProt Q5QGZ9 65-265, limits assumed).
T2 construct: The construct is not described; also called C-type lectin-like molecule-1; MICL
T2 sequence (looked up): T1 sequence (looked up)
The experiment in a line: ELISA and/or FACS of phage clones after panning on immobilized CLL-1.

For experiment [3], the target named is T3, human CLL1 expressed on cancer cell lines HL60 and U937 (human, UniProt Q5QGZ9 1-265).
T3 sequence (looked up): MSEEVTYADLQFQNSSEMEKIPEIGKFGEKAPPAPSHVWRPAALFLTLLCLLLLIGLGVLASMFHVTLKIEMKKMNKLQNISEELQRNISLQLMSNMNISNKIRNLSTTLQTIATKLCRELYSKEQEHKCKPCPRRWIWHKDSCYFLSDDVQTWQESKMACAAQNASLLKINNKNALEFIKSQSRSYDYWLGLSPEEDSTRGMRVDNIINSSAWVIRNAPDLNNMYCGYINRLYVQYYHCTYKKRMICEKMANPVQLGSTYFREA
The experiment in a line: cell-based or functional assay.

B1: CLL-1-9 (scFv)
scFv: QVQLVQSGAEVKEPGASVKVSCKAPANTFSDHVMHWVRQAPGQRFEWMGYIHAANGGTHYSQKFQDRVTITRDTSANTVYMDLSSLRSEDTAVYYCARGGYNSDAFDIWGQGTMVTVSSGGGGSGGGGSGGGGSGGGGSDIVMTQSPSSVSASVGDRVTITCRASQDISSWLAWYQQKPGKAPKLLIYAASSLQSGVPSRFNGSGSGTDFTLTISSLQPEDFATYYCQQSYSTPLTFGGGTKVEIK
notes: Soluble scFv from HEK293F cells, purified on Ni-NTA; a tag is implied but not described; also called 146259
For B1, in experiment [1], the Kd came out at 9.1 nM, the koff came out at 0.00128 s⁻¹ and the on-rate constant (kon) is 141000 M⁻¹ s⁻¹.

B2: CLL-1-2 (scFv)
scFv: EVQLVESGGGVVQPGGSLRLSCAASGFTFDDYAMHWVRQAPGKGLEWVSLISGDGGSTYYADSVKGRFTISRDNSKNTLYLQMNSLRVEDTAVYYCARVFDSYYMDVWGKGTTVTVSSGGGGSGGGGSGSGGSEIVLTQSPLSLPVTPGQPASISCRSSQSLVYTDGNTYLNWFQQRPGQSPRRLIYKVSNRDSGVPDRFSGSGSDTDFTLKISRVEAEDVGIYYCMQGTHWSFTFGQGTRLEIK
notes: Human scFv from phage display; also called 139116
For the molecule B2, in experiment [2], the binding result is listed as “binds”.

B3: CD3 × CLL1_12 (bispecific antibody)
chain 1: QVQLVQSGGGVVQPGRSLRLSCKASGYTFTRYTMHWVRQAPGKGLEWIGYINPSRGYTNYNQKVKDRFTISRDNSKNTAFLQMDSLRPEDTGVYFCARYYDDHYSLDYWGQGTPVTVSSGGGGSGGGKSKKGGSGGGGSDIQMTQSPSSLSASVGDRVTITCSASSSVSYMNWYQQTPGKAPKRWIYDTSKLASGVPSRFSGSGSGTDYTFTISSLQPEDIATYYCQQWSSNPFTFGQGTKLQITGGGGSDKTHTCPPCPAPELLGGPSVFLFPPKPKDTLMISRTPEVTCVVVAVSHEDPEVKFNWYVDGVEVHNAKTKPREEQYNSTYRVVSVLTVLHQDWLNGKEYKCKVSNKALAAPIEKTISKAKGQPREPQVCTLPPSRDELTKNQVSLSCAVKGFYPSDIAVEWESNGQPENNYKTTPPVLDSDGSFFLVSKLTVDKSRWQQGNVFSCSVMHEALHNHYTQKSLSLSPGK
chain 2: not shown
For B3, in experiment [3], the “EC50 (nM), Killing HL60 (T-cell mediated killing of the CLL1-positive cancer cell line)” value (“EC50 (nM), Killing HL60” below) worked out at 0.2 nM and the “EC50 (nM), NFAT U937 (T-cell activation, Jurkat NFAT luciferase reporter assay)” value (shortened to “EC50 (nM), NFAT U937”) came out at 0.63 nM.

B4: CD3 × CLL1_10 (bispecific antibody)
chain 1: B3 chain 1
chain 2: QVQLVQSGGGLVQPGGSLRLSCAASGFTFSSYSMNWVRQAPGKGLEWVSYISSSSSTIYYADSVKGRFTISRDNAKNSLYLQMNSLRAEDTAVYYCARDLSVRAIDAFDIWGQGTMVTVSSGGGGSGGGGSGGGGSGGGGSDIVLTQSPSSLSASVGDRVTITCQASQDISNYLNWYQQKPGKAPKLLIYDASNLETGVPSRFSGSGSGTDFTFTISSLQPEDFATYYCQQAYSTPFTFGPGTKVEIKGGGGSGSDKTHTCPPCPAPELLGGPSVFLFPPKPKDTLMISRTPEVTCVVVAVSHEDPEVKFNWYVDGVEVHNAKTKPREEQYNSTYRVVSVLTVLHQDWLNGKEYKCKVSNKALAAPIEKTISKAKGQPREPQVYTLPPCRDELTKNQVSLWCLVKGFYPSDIAVEWESNGQPENNYKTTPPVLDSDGSFFLYSKLTVDKSRWQQGNVFSCSVMHEALHNHYTQKSLSLSPGK
As to B4, in experiment [3], the “EC50 (nM), Killing HL60” value worked out at 0.27 nM and the “EC50 (nM), NFAT U937” value was found to be 0.85 nM.

B5: CD3 × CLL1_08 (bispecific antibody)
chain 1: B3 chain 1
chain 2: QVQLVESGGGLVQPGGSLRLSCAASGFTFSSYWMSWVRQAPGKGLEWVANINEDGSAKFYVDSVKGRFTISRDNAKNSLYLQMNSLRAEDTAVYFCARDLRSGRYWGQGTLVTVSSGGGGSGGGGSGGGGSEIVLTQSPGTLSLSPGGRATLSCRASQSISGSFLAWYQQKPGQAPRLLIYGASSRATGIPDRFSGSGSGTDFTLTISRLEPEDFAVYYCQQYGSSPPTFGLGTKLEIKGGGGSGSDKTHTCPPCPAPELLGGPSVFLFPPKPKDTLMISRTPEVTCVVVAVSHEDPEVKFNWYVDGVEVHNAKTKPREEQYNSTYRVVSVLTVLHQDWLNGKEYKCKVSNKALAAPIEKTISKAKGQPREPQVYTLPPCRDELTKNQVSLWCLVKGFYPSDIAVEWESNGQPENNYKTTPPVLDSDGSFFLYSKLTVDKSRWQQGNVFSCSVMHEALHNHYTQKSLSLSPGK
Consider B5, for which, in experiment [3], the “EC50 (nM), Killing HL60” value amounted to 0.31 nM and the “EC50 (nM), NFAT U937” value is 1.26 nM.

B6: CLL-1-13 (scFv)
scFv: QVQLVQSGAEVKKSGASVKVSCKASGYPFTGYYIQWVRQAPGQGLEWMGWIDPNSGNTGYAQKFQGRVTMTRNTSISTAYMELSSLRSEDTAVYYCASDSYGYYYGMDVWGQGTLVTVSSGGGGSGGGGSGGGGSGGGGSDIQMTQSPSSLSASVGDRVTFTCRASQGISSALAWYQQKPGKPPKLLIYDASSLESGVPSRFSGSGSGTDFTLTISSLQPEDFATYYCQQFNNYPLTFGGGTKVEIK
notes: Soluble scFv from HEK293F cells, purified on Ni-NTA; a tag is implied but not described; also called 146264
In experiment [1], B6 returned a Kd of 46.1 nM, a koff of 0.00119 s⁻¹ and a kon of 25700 M⁻¹ s⁻¹.

B7: CLL-1-1 (scFv)
scFv: EVQLQQSGAEVKKPGSSVKVSCKASGGTFSSYAISWVRQAPGQGLEWMGGIIPIFGTANYAQKFQGRVTITADESTSTAYMELSSLRSEDTAVYYCARDLEMATIMGGYWGQGTLVTVSSGGGGSGGGGSGGGGSQSALTQPASVSGSPGQSITISCTGTSSDVGGYNYVSWYQQHPGKAPKLMIYDVSNRPSGVSNRFSGSKSGNTASLTISGLQAEDEADYYCSSYTSSSTLDVVFGGGTKLTVL
notes: Human scFv from phage display (VH-linker-VL); For Biacore it was made as soluble scFv in HEK293F cells and purified on Ni-NTA beads; a tag is implied but not described; also called 139115
Consider B7, for which, in experiment [2], the binding result is listed as “binds”.

B8: CLL-1-10 (scFv)
scFv: QVQLVQSGGGLVQPGGSLRLSCAASGFTFSSYSMNWVRQAPGKGLEWVSYISSSSSTIYYADSVKGRFTISRDNAKNSLYLQMNSLRAEDTAVYYCARDLSVRAIDAFDIWGQGTMVTVSSGGGGSGGGGSGGGGSGGGGSDIVLTQSPSSLSASVGDRVTITCQASQDISNYLNWYQQKPGKAPKLLIYDASNLETGVPSRFSGSGSGTDFTFTISSLQPEDFATYYCQQAYSTPFTFGPGTKVEIK
notes: Soluble scFv from HEK293F cells, purified on Ni-NTA; a tag is implied but not described; also called 146261
As to B8, in experiment [1], binding was characterised by a dissociation constant (Kd) of 15 nM, the koff came out at 0.00214 s⁻¹ and the on-rate constant (kon) came out at 142000 M⁻¹ s⁻¹.
